Laboratory results: paper PMC6532394
Like-named read-outs stand apart in the source and are kept apart here.

What was measured:
Assay in all cases: fluorescence anisotropy
[1] = molecular target: T1, MeCP2 (full-length) (human, UniProt P51608 1-486)
[2] = molecular target: T1, MeCP2 (full-length); remark: listed apart in the source
[3] = molecular target: T1, MeCP2 (full-length); remark: listed apart in the source
[4] = molecular target: T1, MeCP2 (full-length); remark: listed apart in the source
[5] = molecular target: T1, MeCP2 (full-length); remark: listed apart in the source
[6] = molecular target: T1, MeCP2 (full-length); remark: listed apart in the source
[7] = molecular target: T1, MeCP2 (full-length); remark: listed apart in the source

T1 sequence (P51608 whole entry): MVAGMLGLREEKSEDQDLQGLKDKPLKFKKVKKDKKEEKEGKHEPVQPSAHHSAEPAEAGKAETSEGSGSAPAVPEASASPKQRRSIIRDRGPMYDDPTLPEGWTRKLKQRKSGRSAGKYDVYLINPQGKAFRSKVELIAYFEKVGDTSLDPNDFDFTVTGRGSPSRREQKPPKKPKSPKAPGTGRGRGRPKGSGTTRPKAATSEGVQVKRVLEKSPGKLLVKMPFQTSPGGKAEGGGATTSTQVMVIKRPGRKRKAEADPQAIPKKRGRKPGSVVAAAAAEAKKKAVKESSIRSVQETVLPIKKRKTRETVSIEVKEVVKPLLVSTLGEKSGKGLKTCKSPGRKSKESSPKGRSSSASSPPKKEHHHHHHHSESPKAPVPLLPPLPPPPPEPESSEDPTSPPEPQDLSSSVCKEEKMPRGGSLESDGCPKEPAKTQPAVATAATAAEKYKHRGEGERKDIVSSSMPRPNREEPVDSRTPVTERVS

| Binder | Kd [1] | Kd [2] | Kd [3] | Kd [4] | Kd [5] | Kd [6] | Kd [7] |
| --- | --- | --- | --- | --- | --- | --- | --- |
| CpG 20 bp duplex (-/-) (dsDNA, none) DNA 1: TCTGGAACGGAATTCTTCTA DNA 2: TAGAAGAATTCCGTTCCAGA | 6.3 ± 0.3 nM | 155 ± 3.7 nM | 56.5 ± 1.8 nM | – | – | – | – |
| mCpG 20 bp duplex (m/m) (dsDNA, 5mC at CpG C of both strands (strand 1 C8, strand 2 C12)) DNA 1: TCTGGAACGGAATTCTTCTA DNA 2: TAGAAGAATTCCGTTCCAGA | – | – | – | 5.2 ± 0.4 nM | 36.5 ± 1.4 nM | 80.3 ± 2.5 nM | 28.3 ± 1.1 nM |
